Assay results reported in the supplement of paper PMC10065799, “High-throughput profiling of sequence recognition by tyrosine kinases and SH2 domains using bacterial peptide display” (eLife, 2023).

Experiments:
c-Src SH2 = assay: SH2 binding enrichment of the phosphorylated peptide, bacterial display (enrichment ratio); higher = better substrate or ligand; peptides without Tyr show the background
Grb2 SH2 = Grb2 SH2 (UniProt P62993); assay: as above
SHP2-C SH2 = assay: as above
Fyn = Fyn (UniProt P06241); assay: phosphorylation enrichment, bacterial display (enrichment ratio); higher = better substrate or ligand; peptides without Tyr show the background
MERTK = MERTK (UniProt Q12866); assay: as above
EPHB2 = EPHB2 (UniProt P29323); assay: as above
c-Src = assay: as above
c-Abl (mouse) = assay: as above
Fes = Fes (UniProt P07332); assay: as above
Fer (mouse) = assay: as above
AncSZ = assay: as above
EPHB1 = EPHB1 (UniProt P54762); assay: as above
FGFR3 = FGFR3 (UniProt P22607); assay: as above
Jak2 = Jak2 (UniProt O60674); assay: as above
FGFR1 = FGFR1 (UniProt P11362); assay: as above
Hck = Hck (UniProt P08631); assay: as above
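For SH2 binding enrichment of the phosphorylated peptide, bacterial display in this document: peptide library displayed on the E. coli surface as eCPX fusions, selected cells deep-sequenced, score is each peptide's frequency after selection divided by its frequency in the input.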
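For phosphorylation enrichment, bacterial display in this document: 11-residue human phosphosite peptides and single-mutation variants displayed on the E. coli surface, counted by deep sequencing, each peptide's frequency after selection divided by its frequency in the unselected input library; frequency after pTyr selection over input frequency; kinase dosed for 20-30% of maximal phosphorylation in three min.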

Hck, sequence (P08631 whole entry, looked up, the tested form may be a part): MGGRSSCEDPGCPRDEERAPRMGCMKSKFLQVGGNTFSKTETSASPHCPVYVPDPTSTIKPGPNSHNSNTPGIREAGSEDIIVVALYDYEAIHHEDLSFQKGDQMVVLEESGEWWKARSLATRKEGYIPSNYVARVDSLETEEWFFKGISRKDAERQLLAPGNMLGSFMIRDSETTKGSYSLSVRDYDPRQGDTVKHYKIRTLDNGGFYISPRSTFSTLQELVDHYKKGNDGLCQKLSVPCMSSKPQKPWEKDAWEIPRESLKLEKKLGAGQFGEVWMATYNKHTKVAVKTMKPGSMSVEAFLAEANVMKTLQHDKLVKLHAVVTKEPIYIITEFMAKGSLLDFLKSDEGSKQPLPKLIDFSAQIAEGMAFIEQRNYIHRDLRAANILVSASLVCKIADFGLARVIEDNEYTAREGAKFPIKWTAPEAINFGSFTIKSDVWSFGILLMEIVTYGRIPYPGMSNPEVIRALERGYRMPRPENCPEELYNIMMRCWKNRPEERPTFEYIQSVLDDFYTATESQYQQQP
Jak2, sequence (O60674 whole entry, looked up): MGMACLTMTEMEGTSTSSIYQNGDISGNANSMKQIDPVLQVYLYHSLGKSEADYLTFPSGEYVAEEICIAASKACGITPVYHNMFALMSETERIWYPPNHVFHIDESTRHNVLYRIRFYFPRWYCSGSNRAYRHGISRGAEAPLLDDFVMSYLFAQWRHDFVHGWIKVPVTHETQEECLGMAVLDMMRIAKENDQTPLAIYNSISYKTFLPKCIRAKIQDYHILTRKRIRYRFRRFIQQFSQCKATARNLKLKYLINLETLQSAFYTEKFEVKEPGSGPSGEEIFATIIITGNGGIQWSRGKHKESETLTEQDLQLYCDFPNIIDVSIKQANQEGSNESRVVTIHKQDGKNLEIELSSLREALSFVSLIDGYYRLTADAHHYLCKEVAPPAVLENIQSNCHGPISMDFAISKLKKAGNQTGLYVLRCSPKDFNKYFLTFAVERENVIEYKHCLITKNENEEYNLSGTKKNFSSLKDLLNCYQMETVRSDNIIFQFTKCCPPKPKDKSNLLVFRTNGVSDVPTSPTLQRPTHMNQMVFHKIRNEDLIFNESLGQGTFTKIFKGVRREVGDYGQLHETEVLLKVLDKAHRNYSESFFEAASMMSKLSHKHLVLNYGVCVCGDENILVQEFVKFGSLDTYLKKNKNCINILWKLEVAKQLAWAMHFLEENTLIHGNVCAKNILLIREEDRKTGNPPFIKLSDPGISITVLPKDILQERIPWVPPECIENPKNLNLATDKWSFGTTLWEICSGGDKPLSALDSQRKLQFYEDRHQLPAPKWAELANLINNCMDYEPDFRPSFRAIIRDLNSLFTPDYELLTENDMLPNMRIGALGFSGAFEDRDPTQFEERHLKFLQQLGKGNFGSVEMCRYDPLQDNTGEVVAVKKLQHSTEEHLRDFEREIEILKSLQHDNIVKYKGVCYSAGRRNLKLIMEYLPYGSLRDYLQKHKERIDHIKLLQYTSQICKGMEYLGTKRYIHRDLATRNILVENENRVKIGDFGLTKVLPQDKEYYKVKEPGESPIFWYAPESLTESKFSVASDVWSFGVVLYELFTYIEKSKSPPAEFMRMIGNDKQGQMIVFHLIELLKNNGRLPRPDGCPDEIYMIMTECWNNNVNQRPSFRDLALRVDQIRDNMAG
EPHB1, sequence (P54762 whole entry, looked up): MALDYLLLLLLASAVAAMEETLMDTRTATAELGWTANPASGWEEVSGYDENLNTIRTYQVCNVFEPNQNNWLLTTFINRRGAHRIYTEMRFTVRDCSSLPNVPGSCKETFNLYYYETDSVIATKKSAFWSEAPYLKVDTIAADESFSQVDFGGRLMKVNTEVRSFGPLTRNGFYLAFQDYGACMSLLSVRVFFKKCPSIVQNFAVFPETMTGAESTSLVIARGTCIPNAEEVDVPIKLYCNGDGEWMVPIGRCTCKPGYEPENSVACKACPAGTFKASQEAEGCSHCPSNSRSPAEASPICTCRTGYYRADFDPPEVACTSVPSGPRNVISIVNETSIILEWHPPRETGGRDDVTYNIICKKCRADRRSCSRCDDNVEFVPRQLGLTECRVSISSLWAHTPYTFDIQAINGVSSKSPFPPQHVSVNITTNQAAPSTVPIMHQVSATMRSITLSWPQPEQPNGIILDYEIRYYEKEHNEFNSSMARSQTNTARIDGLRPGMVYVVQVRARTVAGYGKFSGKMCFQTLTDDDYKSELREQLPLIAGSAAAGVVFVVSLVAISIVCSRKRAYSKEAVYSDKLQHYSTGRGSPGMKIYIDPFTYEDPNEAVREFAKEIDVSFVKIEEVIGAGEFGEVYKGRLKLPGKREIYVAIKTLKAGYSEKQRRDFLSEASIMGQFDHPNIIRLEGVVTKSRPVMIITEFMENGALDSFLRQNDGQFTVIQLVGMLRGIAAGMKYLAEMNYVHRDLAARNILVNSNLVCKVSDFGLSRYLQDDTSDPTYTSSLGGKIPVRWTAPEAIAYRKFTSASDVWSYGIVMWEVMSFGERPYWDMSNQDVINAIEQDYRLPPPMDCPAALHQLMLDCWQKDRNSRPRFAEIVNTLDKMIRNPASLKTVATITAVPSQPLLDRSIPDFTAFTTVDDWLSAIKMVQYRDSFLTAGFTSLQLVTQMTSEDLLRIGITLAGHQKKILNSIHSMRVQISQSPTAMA
FGFR1, sequence (P11362 whole entry, looked up): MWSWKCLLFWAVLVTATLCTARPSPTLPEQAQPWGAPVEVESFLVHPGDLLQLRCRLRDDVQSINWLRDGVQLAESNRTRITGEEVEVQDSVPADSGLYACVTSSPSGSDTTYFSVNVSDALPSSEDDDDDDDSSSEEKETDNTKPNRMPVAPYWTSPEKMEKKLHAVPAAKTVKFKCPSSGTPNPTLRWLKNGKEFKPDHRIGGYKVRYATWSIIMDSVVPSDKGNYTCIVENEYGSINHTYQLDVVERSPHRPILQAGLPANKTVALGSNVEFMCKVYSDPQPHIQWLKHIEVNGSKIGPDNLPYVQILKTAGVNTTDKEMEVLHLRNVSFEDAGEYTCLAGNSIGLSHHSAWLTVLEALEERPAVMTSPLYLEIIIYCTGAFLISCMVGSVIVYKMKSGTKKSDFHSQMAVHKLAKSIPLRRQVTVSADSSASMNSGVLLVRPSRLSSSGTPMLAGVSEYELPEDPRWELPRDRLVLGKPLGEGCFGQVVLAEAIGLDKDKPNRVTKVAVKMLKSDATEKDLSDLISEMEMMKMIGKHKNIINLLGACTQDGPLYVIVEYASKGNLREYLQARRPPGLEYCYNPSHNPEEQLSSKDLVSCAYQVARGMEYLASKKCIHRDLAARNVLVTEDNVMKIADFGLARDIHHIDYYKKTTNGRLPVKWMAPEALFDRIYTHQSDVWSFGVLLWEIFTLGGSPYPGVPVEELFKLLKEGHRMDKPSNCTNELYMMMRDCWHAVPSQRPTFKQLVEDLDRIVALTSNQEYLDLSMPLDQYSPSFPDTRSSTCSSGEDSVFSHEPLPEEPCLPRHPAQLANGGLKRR
FGFR3, sequence (P22607 whole entry, looked up): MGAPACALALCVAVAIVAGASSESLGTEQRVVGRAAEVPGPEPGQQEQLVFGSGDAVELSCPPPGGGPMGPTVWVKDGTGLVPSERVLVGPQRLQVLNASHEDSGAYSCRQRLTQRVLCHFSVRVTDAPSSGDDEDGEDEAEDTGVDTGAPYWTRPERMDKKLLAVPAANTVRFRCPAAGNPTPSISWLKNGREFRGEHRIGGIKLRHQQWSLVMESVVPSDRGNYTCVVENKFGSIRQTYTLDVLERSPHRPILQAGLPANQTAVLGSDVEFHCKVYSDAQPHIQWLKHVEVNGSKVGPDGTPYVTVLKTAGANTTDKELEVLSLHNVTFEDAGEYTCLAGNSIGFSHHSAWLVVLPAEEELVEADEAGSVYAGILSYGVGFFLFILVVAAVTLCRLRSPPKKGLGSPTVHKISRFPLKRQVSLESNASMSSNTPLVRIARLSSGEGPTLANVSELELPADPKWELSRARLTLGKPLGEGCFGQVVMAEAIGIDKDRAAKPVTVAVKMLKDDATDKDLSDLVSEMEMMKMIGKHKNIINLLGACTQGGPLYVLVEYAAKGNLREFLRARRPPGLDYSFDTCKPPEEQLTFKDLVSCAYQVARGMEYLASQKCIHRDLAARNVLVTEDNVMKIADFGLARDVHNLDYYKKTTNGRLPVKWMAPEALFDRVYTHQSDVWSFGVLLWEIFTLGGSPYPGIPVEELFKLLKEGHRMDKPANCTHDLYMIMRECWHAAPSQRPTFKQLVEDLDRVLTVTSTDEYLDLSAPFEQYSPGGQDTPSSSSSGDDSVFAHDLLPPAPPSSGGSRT
Fyn, sequence (P06241 whole entry, looked up): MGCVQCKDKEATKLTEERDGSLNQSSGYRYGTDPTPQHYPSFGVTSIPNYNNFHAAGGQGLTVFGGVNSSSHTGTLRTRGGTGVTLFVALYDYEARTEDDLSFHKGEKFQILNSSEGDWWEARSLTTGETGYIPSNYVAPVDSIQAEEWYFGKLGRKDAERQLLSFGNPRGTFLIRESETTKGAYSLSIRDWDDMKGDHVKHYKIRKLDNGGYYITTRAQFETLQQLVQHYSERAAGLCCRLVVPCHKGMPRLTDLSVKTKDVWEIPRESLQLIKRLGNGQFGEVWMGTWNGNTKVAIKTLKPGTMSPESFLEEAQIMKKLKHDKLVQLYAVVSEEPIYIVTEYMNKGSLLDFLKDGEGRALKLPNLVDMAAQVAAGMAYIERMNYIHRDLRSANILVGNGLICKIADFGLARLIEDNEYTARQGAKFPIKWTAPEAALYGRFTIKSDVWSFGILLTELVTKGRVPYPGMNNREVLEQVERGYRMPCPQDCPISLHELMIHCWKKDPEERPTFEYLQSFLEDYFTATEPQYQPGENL

SH2 binding enrichment (c-Src SH2)	SH2 binding enrichment (Grb2 SH2)	SH2 binding enrichment (SHP2-C SH2)	Sequence	phosphorylation enrichment (Fyn)	phosphorylation enrichment (MERTK)	phosphorylation enrichment (EPHB2)	phosphorylation enrichment (c-Src)	phosphorylation enrichment (c-Abl (mouse))	phosphorylation enrichment (Fes)	phosphorylation enrichment (Fer (mouse))	phosphorylation enrichment (AncSZ)	phosphorylation enrichment (EPHB1)	phosphorylation enrichment (FGFR3)	phosphorylation enrichment (Jak2)	phosphorylation enrichment (FGFR1)	phosphorylation enrichment (Hck)
0.603	0.715	0.613	GTTIHYNFMCN [TP53_Y234_C229G_YF]	0.477	0.465	0.718	0.467	0.888	1.32	0.63	1.12	0.743	0.822	1.13	0.544	0.532
1.11	0.824	0.638	LVQAEYWHDPI [PPT1_Y185]	0.58	0.591	0.487	0.61	1.36	1.48	0.644	1.48	0.677	2.98	1.18	3.89	0.593
1.52	1.96	1.68	FVSIVYNDFGE [TSC2_Y1650_S1653F]	0.599	0.422	0.665	0.856	0.725	1.16	0.514	1.21	0.605	0.801	0.991	0.561	0.642
0.823	1.03	0.773	LWQTIYNLEAE [TNNT2_Y251_S249T]	10.9	0.735	0.894	8.82	1.21	2.22	0.855	1.56	1.3	1.13	1.73	1.15	5.88
0.724	0.581	0.722	TAPFNYSFIFK [RAB14_Y8_YF]	0.493	2.27	0.692	0.377	0.657	1.1	0.376	0.975	2	0.771	0.757	0.405	0.56
0.358	0.854	0.622	FGSSSSGGAGG [RPA2_Y14_Y14S_YF]	0.419	0.394	0.31	0.458	0.511	0.638	0.417	0.499	0.287	0.455	0.669	0.409	0.312
0.844	1.15	1.09	AGREIYESEKC [TTN_Y4424_D4427E]	0.525	0.547	0.585	0.59	0.708	0.925	0.47	0.856	0.427	0.638	0.846	0.535	0.495
0.443	0.605	0.573	ETPSEYLEIVR [TMEM130_Y412]	0.555	0.452	0.608	0.49	0.652	1.01	0.493	1.17	0.848	0.77	1.01	0.645	0.652

Continued, sequence first:

Sequence	SH2 binding enrichment (c-Src SH2)	SH2 binding enrichment (Grb2 SH2)	SH2 binding enrichment (SHP2-C SH2)	phosphorylation enrichment (Fyn)	phosphorylation enrichment (MERTK)	phosphorylation enrichment (EPHB2)	phosphorylation enrichment (c-Src)	phosphorylation enrichment (c-Abl (mouse))	phosphorylation enrichment (Fes)	phosphorylation enrichment (Fer (mouse))	phosphorylation enrichment (AncSZ)	phosphorylation enrichment (EPHB1)	phosphorylation enrichment (FGFR3)	phosphorylation enrichment (Jak2)	phosphorylation enrichment (FGFR1)	phosphorylation enrichment (Hck)
AEMTGYVVTRW [MAPK13_Y182]	0.47	0.845	0.586	0.468	0.372	0.586	0.486	0.895	1.3	0.499	1.17	0.636	0.834	1.34	0.526	0.467
ENELTYYCCKK [CD59_Y86]	0.483	0.953	0.82	1.72	1.08	0.97	2.74	1.26	0.955	0.779	1.57	0.505	1.22	1.77	2.21	2.47
GDPVQYNRTTD [MLPH_Y454]	0.459	0.812	0.738	0.412	0.429	0.551	0.452	0.78	1.04	0.435	0.705	0.521	0.7	0.959	0.465	0.381
QMVGMYAFSFM [AVPR2_Y124_S126F_YF]	0.353	0.654	0.817	1.16	5.8	3.08	1.28	0.912	1.65	3.54	1.5	1.95	1.63	1.15	0.846	1.06
LPKVSYVKAID [GLRA1_Y307]	0.459	0.868	0.768	0.391	0.542	0.411	0.338	0.444	0.652	0.34	0.629	0.402	0.433	0.563	0.423	0.434
YSNKLHYQLEQ [PDPR_Y109_Y109H]	0.606	0.98	0.54	0.568	0.484	0.439	0.553	0.495	0.782	0.461	1.12	0.498	0.592	0.757	0.435	0.535
KRFAFYRDSPR [FOXE3_Y108_E103K]	0.81	1.14	0.974	0.446	0.437	0.387	0.414	0.526	0.643	0.421	0.538	0.327	0.479	0.482	0.443	0.387
AATTAYSKPKR [MAP3K7_Y405]	0.693	0.935	0.712	0.281	0.302	0.264	0.354	0.509	0.563	0.317	0.404	0.275	0.37	0.425	0.337	0.384
CSPLLYKVIMS [OR8D4_Y132_R133K]	0.488	0.882	0.635	0.507	0.6	0.648	0.445	0.955	1.21	0.611	1.06	0.693	0.819	0.989	0.518	0.566
